Assay results as given in the MegaScale stability set (Tsuboyama et al. 2023).

B1: 2M8U (parent)
chain: TKAQVIEAFKVFDRDGNGYVTVDYLRKVLNELGDMMPADEIEEMIYEADPQNSGYVQYETFVGMLFL
B2: EHEE_rd2_0196 (parent)
chain: TETRTFDSEEEAKKAQKEAEKQGRTVTITRRDDRWEVRFD

Variants of: B1
Assay: folding stability dG (cDNA display proteolysis); higher = more stable
Conditions: PBS, room temperature

Folding stability dG [kcal/mol] of substitutions, site by site:
Q4: D 3.28, G 2.99, R 3.34, L 3.21, F 2.87, M 3.31, E 3.41, Y 2.97, N 3.09, T 3.04, C 3.56, W 3.08, P 2.35, A 3.53, K 3.38, H 3.12

Variants of: B2
Assay: as above
Conditions: PBS, room temperature

Folding stability dG [kcal/mol], by site and new letter:
V37: I 2.65, P 0.552, S 0.483, Q 0.384, N 0.539, L 2.83, T 1.31, W -0.006, C 1.8, A 1.89, H 0.212, R -0.375, F 1.02, D 0.415, Y 0.443, M 2.17, G 1.09, K 0.375, E 0.37
D40: H 2.98, K 2.3, T 3.15, I 3.13, R 2.42, S 3.13, N 2.88, A 2.97, Q 2.92, G 2.95, L 3.05, P 2.3, W 2.89, F 2.85, E 3.28, V 3.21, Y 2.8, M 3.01
R34: F 3.14, L 3.13, S 2.76, T 2.7, P 0.669, D 2.03, H 3.13, G 3.16, V 3.14, M 3.14, K 3.51, A 2.81, Y 3.18, W 2.79, N 2.41, E 2.41, Q 2.96, I 3.14
D33: M 1.95, Y 1.48, K 2.17, F 1.55, W 1.34, V 1.4, G 3.39, L 1.71, T 2.09, P 1.21, Q 2.46, H 2.5, A 1.96, N 3.08, R 1.83, E 2.7, I 1.37, S 2.36, C 2.47
D32: S 2.45, V 2.29, W 1.84, Y 2.19, T 2.06
W35: S 0.473, G 0.36, P 0.441, N 0.396, A 0.417, L 0.862, Y 2.08, F 2.18, I 1.2, E 0.481, K 0.058, T 0.4, D 0.578, M 0.562, H 0.529, R 0.21, V 0.758, Q 0.348
R38: K 2.96, M 2.74, P 0.679, I 3.05, F 2.33, G 2.1, E 2.68, N 2.73, W 2.17, Y 2.24, A 2.8, S 3, H 3.04, L 2.69, D 2.18, V 3.02, T 3.15, Q 2.85
E36: K 0.851, L 2.46, G 0.645, W 1.94, R 1.08, I 2.99, F 2.5, Q 1.95, S 1.19, A 1.32, H 2.08, V 2.89, D 2.06, T 1.74, M 2.06, N 1.15, Y 2.57
F39: Y 3.15, K 1.29, A 2.34, P 2.06, D 2.51, M 2.96, S 2.46, L 2.74, C 2.14, E 2.52, W 2.94, N 1.81, T 2.48, R 1.35, V 2.93, G 1.87, I 3.35, Q 2.02, H 1.93
